From paper PMC3437054

B1: 40/65-nt ptDNA-TAMRA (mixed)
DNA 1: ATTTCCTTCAGCAGATAGGAACCATACTGATTCACATGGC
DNA 2: TAGTTAGAACCTAAGCATATTAGTAGCCATGTGAATCAGTATGGTTCCTATCTGCTGAAGGAAAT
modifications: 3' amino linker on primer

How the values were obtained:
[1] = target: PCNA (Saccharomyces cerevisiae) (UniProt P15873); settings: cited from earlier work
[2] = target: Replication factor C (RFC-A/B/C/D/E);PCNA (wild type) (Saccharomyces cerevisiae;Saccharomyces …, UniProt P38630;P40339;P38629;P40348;P38251;P15873 1-861;1-323;1-340;1-353;1-354;1-258, |); assay: fluorescence intensity
[3] = target: Replication factor C (RFC-A/B/C/D/E) (Saccharomyces cerevisiae, UniProt P38630;P40339;P38629;P40348;P38251 1-861;1-323;1-340;1-353;1-354); assay: stopped-flow TAMRA fluorescence

Molecule | Kd [1] | Kd [2] | binding result [3]
RFC (from UniProt P38630) | 1 nM | – | –
B1 | – | 1 nM | binds
